Reference: publication PMC7881136, “Mechanism of karyopherin-β2 binding and nuclear import of ALS variants FUS(P525L) and FUS(R495X)” (Scientific Reports, 2021)
Changes are numbered by the printed parent chain. Numbers in names are those of the source.

T1: Kapβ2 (untagged, GST removed) (human, UniProt Q92973-2 1-890)
T1 construct: Karyopherin β2 (Kapβ2, Transportin-1, TNPO1), human; used for ITC and turbidity assays; also called Karyopherin-β2; Transportin-1; source: E. coli BL21 (DE3), purified (GSH column, Tev cleavage, anion exchange, SEC Superdex200)
T1 sequence (looked up): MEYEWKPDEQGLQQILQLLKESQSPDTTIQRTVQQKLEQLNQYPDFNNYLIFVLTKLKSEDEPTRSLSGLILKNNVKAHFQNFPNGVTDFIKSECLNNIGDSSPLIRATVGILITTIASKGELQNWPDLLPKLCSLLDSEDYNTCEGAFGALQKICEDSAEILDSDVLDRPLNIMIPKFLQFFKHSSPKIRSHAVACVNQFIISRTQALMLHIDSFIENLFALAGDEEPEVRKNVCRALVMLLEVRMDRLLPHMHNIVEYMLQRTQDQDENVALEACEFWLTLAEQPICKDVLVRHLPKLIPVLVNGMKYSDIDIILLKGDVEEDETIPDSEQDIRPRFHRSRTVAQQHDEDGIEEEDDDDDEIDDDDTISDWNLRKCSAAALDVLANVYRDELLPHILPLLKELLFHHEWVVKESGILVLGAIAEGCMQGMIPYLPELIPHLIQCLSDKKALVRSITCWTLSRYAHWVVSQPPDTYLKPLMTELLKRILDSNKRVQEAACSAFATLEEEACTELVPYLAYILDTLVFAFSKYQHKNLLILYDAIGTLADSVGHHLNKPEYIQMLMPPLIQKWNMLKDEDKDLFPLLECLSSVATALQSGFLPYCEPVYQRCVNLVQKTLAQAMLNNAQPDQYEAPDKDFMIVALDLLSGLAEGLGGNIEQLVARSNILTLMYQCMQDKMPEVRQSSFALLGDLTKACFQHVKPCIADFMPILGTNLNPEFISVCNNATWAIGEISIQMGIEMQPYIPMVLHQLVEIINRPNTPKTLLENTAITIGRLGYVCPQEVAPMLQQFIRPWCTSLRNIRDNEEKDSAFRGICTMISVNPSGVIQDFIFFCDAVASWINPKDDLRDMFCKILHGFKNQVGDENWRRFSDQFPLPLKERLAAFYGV

T2: GST-Kapβ2 (Karyopherin-β2) (human, UniProt Q92973-2 1-890)
T2 construct: Karyopherin β2 (Kapβ2, Transportin-1, TNPO1), human; GST-importin eluted with glutathione and immobilised again on GSH beads for pull-downs; also called Transportin-1; TNPO1; source: E. coli BL21 (DE3), purified (GSH Sepharose, anion exchange, SEC)
T2 sequence (looked up): T1 sequence (looked up)

B1: MBP-FUS(371–452) (RGG2-ZnF) (domain or fragment, UniProt P35637 371-452, looked up)
chain: RRADFNRGGGNGRGGRGRGGPMGRGGYGGGGSGGGGRGGFPSGGGGGGGQQRAGDWKCPNPTCENMNFSWRNECNQCKAPKP
notes: also called FUS RGG2-ZnF; source: E. coli BL21 (DE3), purified (amylose resin, SEC); not shown: MBP, N-terminal, kept
B2: MBP-FUS(371–500) (RGG2-ZnF-RGG3) (domain or fragment, UniProt P35637 371-500, looked up)
chain: RRADFNRGGGNGRGGRGRGGPMGRGGYGGGGSGGGGRGGFPSGGGGGGGQQRAGDWKCPNPTCENMNFSWRNECNQCKAPKPDGPGGGPGGSHMGGNYGDDRRGGRGGYDRGGYRGRGGDRGGFRGGRGG
notes: also called FUS RGG2-ZnF-RGG3; source: E. coli BL21 (DE3), purified (amylose resin, SEC); not shown: MBP, N-terminal, kept
B3: MBP-FUS PY-NLS (residues 475–526) (domain or fragment, UniProt P35637 475-526, looked up)
chain: GRGGYDRGGYRGRGGDRGGFRGGRGGGDRGGFGPGKMDSRGEHRQDRRERPY
notes: FUS residues 475–526 (PY-NLS); also called FUS(475–526); WT FUS^PY-NLS; source: E. coli BL21 (DE3), purified (amylose resin, SEC); not shown: MBP, N-terminal, kept
B4: MBP-FUS PY-NLS (P525L) (residues 475–526) (domain or fragment, UniProt P35637 475-526, looked up)
chain: B3 chain with P51L
notes: FUS residues 475–526 with the ALS mutation P525L; also called FUS(P525L)^PY-NLS; source: E. coli BL21 (DE3), purified (amylose resin, SEC); not shown: MBP, N-terminal, kept
B5: MBP-FUS(1–370) (domain or fragment, UniProt P35637 1-370, looked up)
chain: MASNDYTQQATQSYGAYPTQPGQGYSQQSSQPYGQQSYSGYSQSTDTSGYGQSSYSSYGQSQNTGYGTQSTPQGYGSTGGYGSSQSSQSSYGQQSSYPGYGQQPAPSSTSGSYGSSSQSSSYGQPQSGSYSQQPSYGGQQQSYGQQQSYNPPQGYGQQNQYNSSSGGGGGGGGGGNYGQDQSSMSSGGGSGGGYGNQDQSGGGGSGGYGQQDRGGRGRGGSGGGGGGGGGGYNRSSGGYEPRGRGGGRGGRGGMGGSDRGGFNKFGGPRDQGSRHDSEQDNSDNNTIFVQGLGENVTIESVADYFKQIGIIKTNKKTGQPMINLYTDRETGKLKGEATVSFDDPPSAKAAIDWFDGKEFSGNPIKVSFAT
notes: FUS residues 1–370 (missing RGG2-ZnF-RGG3-PYNLS); also called FUS LC-RGG1; source: E. coli BL21 (DE3), purified (amylose resin, SEC); not shown: MBP, N-terminal, kept
B6: MBP-FUS(1–500) (domain or fragment, UniProt P35637 1-500, looked up)
chain: MASNDYTQQATQSYGAYPTQPGQGYSQQSSQPYGQQSYSGYSQSTDTSGYGQSSYSSYGQSQNTGYGTQSTPQGYGSTGGYGSSQSSQSSYGQQSSYPGYGQQPAPSSTSGSYGSSSQSSSYGQPQSGSYSQQPSYGGQQQSYGQQQSYNPPQGYGQQNQYNSSSGGGGGGGGGGNYGQDQSSMSSGGGSGGGYGNQDQSGGGGSGGYGQQDRGGRGRGGSGGGGGGGGGGYNRSSGGYEPRGRGGGRGGRGGMGGSDRGGFNKFGGPRDQGSRHDSEQDNSDNNTIFVQGLGENVTIESVADYFKQIGIIKTNKKTGQPMINLYTDRETGKLKGEATVSFDDPPSAKAAIDWFDGKEFSGNPIKVSFATRRADFNRGGGNGRGGRGRGGPMGRGGYGGGGSGGGGRGGFPSGGGGGGGQQRAGDWKCPNPTCENMNFSWRNECNQCKAPKPDGPGGGPGGSHMGGNYGDDRRGGRGGYDRGGYRGRGGDRGGFRGGRGG
notes: FUS residues 1–500; in the turbidity assays MBP is cut off by Tev during the assay; source: E. coli BL21 (DE3), purified (amylose resin, SEC); not shown: MBP, N-terminal, kept
B7: MBP-FUS (full length) (natural protein, UniProt P35637 1-526, looked up)
chain: MASNDYTQQATQSYGAYPTQPGQGYSQQSSQPYGQQSYSGYSQSTDTSGYGQSSYSSYGQSQNTGYGTQSTPQGYGSTGGYGSSQSSQSSYGQQSSYPGYGQQPAPSSTSGSYGSSSQSSSYGQPQSGSYSQQPSYGGQQQSYGQQQSYNPPQGYGQQNQYNSSSGGGGGGGGGGNYGQDQSSMSSGGGSGGGYGNQDQSGGGGSGGYGQQDRGGRGRGGSGGGGGGGGGGYNRSSGGYEPRGRGGGRGGRGGMGGSDRGGFNKFGGPRDQGSRHDSEQDNSDNNTIFVQGLGENVTIESVADYFKQIGIIKTNKKTGQPMINLYTDRETGKLKGEATVSFDDPPSAKAAIDWFDGKEFSGNPIKVSFATRRADFNRGGGNGRGGRGRGGPMGRGGYGGGGSGGGGRGGFPSGGGGGGGQQRAGDWKCPNPTCENMNFSWRNECNQCKAPKPDGPGGGPGGSHMGGNYGDDRRGGRGGYDRGGYRGRGGDRGGFRGGRGGGDRGGFGPGKMDSRGEHRQDRRERPY
notes: Fused in Sarcoma (FUS), full length; in the turbidity assays MBP is cut off by Tev during the assay; also called FL-FUS; MBP-FL FUS; source: E. coli BL21 (DE3), purified (amylose resin, SEC); not shown: MBP, N-terminal, kept
B8: MBP-FUS(1–452) (domain or fragment, UniProt P35637 1-452, looked up)
chain: MASNDYTQQATQSYGAYPTQPGQGYSQQSSQPYGQQSYSGYSQSTDTSGYGQSSYSSYGQSQNTGYGTQSTPQGYGSTGGYGSSQSSQSSYGQQSSYPGYGQQPAPSSTSGSYGSSSQSSSYGQPQSGSYSQQPSYGGQQQSYGQQQSYNPPQGYGQQNQYNSSSGGGGGGGGGGNYGQDQSSMSSGGGSGGGYGNQDQSGGGGSGGYGQQDRGGRGRGGSGGGGGGGGGGYNRSSGGYEPRGRGGGRGGRGGMGGSDRGGFNKFGGPRDQGSRHDSEQDNSDNNTIFVQGLGENVTIESVADYFKQIGIIKTNKKTGQPMINLYTDRETGKLKGEATVSFDDPPSAKAAIDWFDGKEFSGNPIKVSFATRRADFNRGGGNGRGGRGRGGPMGRGGYGGGGSGGGGRGGFPSGGGGGGGQQRAGDWKCPNPTCENMNFSWRNECNQCKAPKP
notes: source: E. coli BL21 (DE3), purified (amylose resin, SEC); not shown: MBP, N-terminal, kept
B9: MBP-FUS(277–500) (domain or fragment, UniProt P35637 277-500, looked up)
chain: SEQDNSDNNTIFVQGLGENVTIESVADYFKQIGIIKTNKKTGQPMINLYTDRETGKLKGEATVSFDDPPSAKAAIDWFDGKEFSGNPIKVSFATRRADFNRGGGNGRGGRGRGGPMGRGGYGGGGSGGGGRGGFPSGGGGGGGQQRAGDWKCPNPTCENMNFSWRNECNQCKAPKPDGPGGGPGGSHMGGNYGDDRRGGRGGYDRGGYRGRGGDRGGFRGGRGG
notes: as for B8
B10: MBP-FUS(121–500) (domain or fragment, UniProt P35637 121-500, looked up)
chain: SYGQPQSGSYSQQPSYGGQQQSYGQQQSYNPPQGYGQQNQYNSSSGGGGGGGGGGNYGQDQSSMSSGGGSGGGYGNQDQSGGGGSGGYGQQDRGGRGRGGSGGGGGGGGGGYNRSSGGYEPRGRGGGRGGRGGMGGSDRGGFNKFGGPRDQGSRHDSEQDNSDNNTIFVQGLGENVTIESVADYFKQIGIIKTNKKTGQPMINLYTDRETGKLKGEATVSFDDPPSAKAAIDWFDGKEFSGNPIKVSFATRRADFNRGGGNGRGGRGRGGPMGRGGYGGGGSGGGGRGGFPSGGGGGGGQQRAGDWKCPNPTCENMNFSWRNECNQCKAPKPDGPGGGPGGSHMGGNYGDDRRGGRGGYDRGGYRGRGGDRGGFRGGRGG
notes: as for B8
B11: MBP-FUS(1–430) (domain or fragment, UniProt P35637 1-430, looked up)
chain: MASNDYTQQATQSYGAYPTQPGQGYSQQSSQPYGQQSYSGYSQSTDTSGYGQSSYSSYGQSQNTGYGTQSTPQGYGSTGGYGSSQSSQSSYGQQSSYPGYGQQPAPSSTSGSYGSSSQSSSYGQPQSGSYSQQPSYGGQQQSYGQQQSYNPPQGYGQQNQYNSSSGGGGGGGGGGNYGQDQSSMSSGGGSGGGYGNQDQSGGGGSGGYGQQDRGGRGRGGSGGGGGGGGGGYNRSSGGYEPRGRGGGRGGRGGMGGSDRGGFNKFGGPRDQGSRHDSEQDNSDNNTIFVQGLGENVTIESVADYFKQIGIIKTNKKTGQPMINLYTDRETGKLKGEATVSFDDPPSAKAAIDWFDGKEFSGNPIKVSFATRRADFNRGGGNGRGGRGRGGPMGRGGYGGGGSGGGGRGGFPSGGGGGGGQQRAGDWKCPN
notes: FUS residues 1–430 (missing ZnF-RGG3-PYNLS); source: E. coli BL21 (DE3), purified (amylose resin, SEC); not shown: MBP, N-terminal, kept

Target: T1, Kapβ2 (untagged, GST removed)
Assay: ITC; 10 μM Kapβ2 in the cell, 100 μM or 200 μM MBP-FUS protein in the syringe; 20 mM Tris–HCl, 150 mM NaCl, 10% glycerol, 2 mM BME; 20 °C; single class of binding sites, global analysis of duplicates or triplicates
Conditions: both partners purified

Kd [nM]	Binder
4000	B1
170	B2
31	B3
180	B4

Target: T1, Kapβ2 (untagged, GST removed)
Assay: ITC; reversed set-up: 10 μM MBP-FUS protein in the cell, 100 μM or 200 μM Kapβ2 in the syringe; 20 mM Tris–HCl, 150 mM NaCl, 10% glycerol, 2 mM BME; 20 °C; single class of binding sites; 'apparent' KD for FUS(1–370)
Conditions: both partners purified

Kd [nM]	Binder
35000	B5
160	B6

Target: T2, GST-Kapβ2 (Karyopherin-β2)
Assay: pull-down; 4–8 μM GST-importin (or GST) immobilised on 50 μL GSH beads; 4–8 μM MBP-FUS protein or GSP1 added in 100 μL; 20 mM HEPES pH 7.4, 110 mM potassium acetate, 2 mM magnesium acetate, 2 mM DTT, 15% glycerol; 30 min at 25 °C, three washes; Coomassie-stained SDS-PAGE
Conditions: both partners purified

binding result	Binder
binds	B7
binds	B8
binds	B9
binds	B10
binds	B11
